Results as given in US20250320281A1.

Key:
[1] = biological target: HIV-1 Env of pseudovirus isolate MGRM-G-015 (HIV-1); assay: cell-based or functional assay
[2] = biological target: HIV-1 Env of isolate MGRM-C-005 (HIV-1); assay: cell-based or functional assay
[3] = biological target: HIV-1 Env of isolate MGRM-C-019 (HIV-1); assay: cell-based or functional assay
[4] = biological target: HIV-1 NL43 Env (pseudovirus) (HIV-1); assay: cell-based or functional assay
[5] = biological target: HIV-1 Env of isolate MGRM-C-025 (HIV-1); assay: cell-based or functional assay
[6] = biological target: HIV-1 92TH021 Env (pseudovirus) (HIV-1); assay: cell-based or functional assay
[7] = biological target: HIV-1 Env of isolate MGRM-C-017 (HIV-1); assay: cell-based or functional assay
[8] = biological target: HIV-1 Env of pseudovirus isolate MGRM-G-013 (HIV-1); assay: cell-based or functional assay
[9] = biological target: HIV-1 Env of isolate MGRM-C-014 (HIV-1); assay: cell-based or functional assay
[10] = biological target: HIV-1 92UG024 Env (pseudovirus) (HIV-1); assay: cell-based or functional assay
[11] = biological target: HIV-1 Env of pseudovirus isolate MGRM-G-001 (HIV-1); assay: cell-based or functional assay
[12] = biological target: HIV-1 Env of isolate MGRM-C-022 (HIV-1); assay: cell-based or functional assay
[13] = biological target: HIV-1 Env of pseudovirus isolate MGRM-G-027 (HIV-1); assay: cell-based or functional assay
[14] = biological target: HIV-1 92UG005 Env (pseudovirus) (HIV-1); assay: cell-based or functional assay
[15] = biological target: HIV-1 Env of isolate MGRM-C-013 (HIV-1); assay: cell-based or functional assay
[16] = biological target: HIV-1 Env of pseudovirus isolate MGRM-G-017 (HIV-1); assay: cell-based or functional assay
[17] = biological target: HIV-1 Env of isolate MGRM-C-020 (HIV-1); assay: cell-based or functional assay
[18] = biological target: HIV-1 Env of pseudovirus isolate MGRM-G-019 (HIV-1); assay: cell-based or functional assay
[19] = biological target: HIV-1 Env of isolate MGRM-C-023 (HIV-1); assay: cell-based or functional assay
[20] = biological target: HIV-1 CMU02 Env (pseudovirus) (HIV-1); assay: cell-based or functional assay
[21] = biological target: HIV-1 Env of isolate MGRM-C-006 (HIV-1); assay: cell-based or functional assay
[22] = biological target: HIV-1 Env of pseudovirus isolate MGRM-G-014 (HIV-1); assay: cell-based or functional assay
[23] = biological target: HIV-1 Env of isolate MGRM-C-008 (HIV-1); assay: cell-based or functional assay
[24] = biological target: HIV-1 Env of pseudovirus isolate MGRM-G-009 (HIV-1); assay: cell-based or functional assay
[25] = biological target: HIV-1 Env of isolate MGRM-C-001 (HIV-1); assay: cell-based or functional assay
[26] = biological target: HIV-1 Env of isolate MGRM-C-002 (HIV-1); assay: cell-based or functional assay
[27] = biological target: HIV-1 Env of isolate MGRM-C-009 (HIV-1); assay: cell-based or functional assay
[28] = biological target: HIV-1 Env of isolate MGRM-C-015 (HIV-1); assay: cell-based or functional assay
[29] = biological target: envelope of aMLV pseudovirus (negative control); assay: cell-based or functional assay
[30] = biological target: HIV-1 Env of pseudovirus isolate MGRM-G-004 (HIV-1); assay: cell-based or functional assay
[31] = biological target: HIV-1 Env of isolate MGRM-C-010 (HIV-1); assay: cell-based or functional assay
[32] = biological target: HIV-1 Env of isolate MGRM-C-004 (HIV-1); assay: cell-based or functional assay
[33] = biological target: HIV-1 Env of isolate MGRM-C-024 (HIV-1); assay: cell-based or functional assay
[34] = biological target: HIV-1 Env of isolate MGRM-C-012 (HIV-1); assay: cell-based or functional assay
[35] = biological target: HIV-1 Env of pseudovirus isolate MGRM-G-011 (HIV-1); assay: cell-based or functional assay
[36] = biological target: HIV-1 Env of isolate MGRM-C-007 (HIV-1); assay: cell-based or functional assay
[37] = biological target: HIV-1 Env of pseudovirus isolate MGRM-G-016 (HIV-1); assay: cell-based or functional assay
[38] = biological target: HIV-1 Env of pseudovirus isolate MGRM-G-006 (HIV-1); assay: cell-based or functional assay
WT JR-FL gp120 (HIV-1) = assay: ELISA, antigen-coated wells
[39] = biological target: HIV-1 MGRM-A-010 Env (pseudovirus) (HIV-1); assay: cell-based or functional assay
[40] = biological target: HIV-1 94UG103 Env (pseudovirus) (HIV-1); assay: cell-based or functional assay
[41] = biological target: HIV-1 MGRM-D-018 Env (pseudovirus) (HIV-1); assay: cell-based or functional assay
[42] = biological target: HIV-1 92RW020 Env (pseudovirus) (HIV-1); assay: cell-based or functional assay
[43] = biological target: HIV-1 JRCSF Env (pseudovirus) (HIV-1) (UniProt P20871); assay: cell-based or functional assay
[44] = biological target: HIV-1 MGRM-C-027 Env (pseudovirus) (HIV-1); assay: cell-based or functional assay
[45] = biological target: HIV-1 93IN905 Env (pseudovirus) (HIV-1); assay: cell-based or functional assay
[46] = biological target: HIV-1 MGRM-C-026 Env (pseudovirus) (HIV-1); assay: cell-based or functional assay
[47] = biological target: HIV-1 APV6 Env (pseudovirus) (HIV-1); assay: cell-based or functional assay
[48] = biological target: HIV-1 MGRM-C-028 Env (pseudovirus) (HIV-1); assay: cell-based or functional assay

5329_C19 (PGT-136) (antibody), sequence (VH): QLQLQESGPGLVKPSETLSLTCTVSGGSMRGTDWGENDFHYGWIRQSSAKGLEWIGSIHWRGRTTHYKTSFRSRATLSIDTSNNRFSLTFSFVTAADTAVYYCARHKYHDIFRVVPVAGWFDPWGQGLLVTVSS
5329_C19 (PGT-136) (antibody), sequence (VL): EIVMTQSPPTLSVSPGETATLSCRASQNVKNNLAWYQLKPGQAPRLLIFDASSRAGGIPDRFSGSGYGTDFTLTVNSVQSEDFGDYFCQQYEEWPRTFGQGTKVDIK

Substance	IC50 (µg/mL), pseudovirus neutralization [1] [µg/mL]	neutralization IC50 [2] [µg/mL]	neutralization IC50 [3] [µg/mL]	neutralization IC50 [5] [µg/mL]	neutralization IC50 [7] [µg/mL]	IC50 (µg/mL), pseudovirus neutralization [8] [µg/mL]	neutralization IC50 [9] [µg/mL]	IC50 (µg/mL), pseudovirus neutralization [11] [µg/mL]	neutralization IC50 [12] [µg/mL]	IC50 (µg/mL), pseudovirus neutralization [13] [µg/mL]	IC50 (µg/mL), pseudovirus neutralization [16] [µg/mL]	IC50 (µg/mL), pseudovirus neutralization [18] [µg/mL]	IC50 (µg/mL), pseudovirus neutralization [22] [µg/mL]	IC50 (µg/mL), pseudovirus neutralization [24] [µg/mL]	IC50 (µg/mL), pseudovirus neutralization [29] [µg/mL]	IC50 (µg/mL), pseudovirus neutralization [30] [µg/mL]	IC50 (µg/mL), pseudovirus neutralization [35] [µg/mL]	IC50 (µg/mL), pseudovirus neutralization [37] [µg/mL]	IC50 (µg/mL), pseudovirus neutralization [38] [µg/mL]	EC50 (WT JR-FL gp120 (HIV-1)) [µg/mL]	other results
4838_L06 (PGT-121) (antibody)	> 50	0.015	> 50	46.8	0.009	3.99	26.9	0.004	0.015	0.124	0.004	0.011	0.009	0.02	> 50	0.115	3.17	> 50	> 50	0.2	neutralization IC50 (pseudovirus) [4]: > 10 µg/mL; neutralization IC50 (pseudovirus) [6]: > 10 µg/mL; neutralization IC50 (pseudovirus) [10]: > 10 µg/mL; neutralization IC50 (pseudovirus) [14]: > 10 µg/mL; neutralization IC50 [15]: 7.23 µg/mL; neutralization IC50 [17]: > 50 µg/mL; neutralization IC50 [19]: 0.017 µg/mL; neutralization IC50 (pseudovirus) [20]: > 10 µg/mL; neutralization IC50 [21]: 0.017 µg/mL; neutralization IC50 [23]: 0.012 µg/mL; neutralization IC50 [25]: 17.5 µg/mL; neutralization IC50 [26]: 0.019 µg/mL; neutralization IC50 [27]: > 50 µg/mL; neutralization IC50 [28]: 25.1 µg/mL; neutralization IC50 [31]: > 50 µg/mL; neutralization IC50 [32]: 0.011 µg/mL; neutralization IC50 [33]: 0.052 µg/mL; neutralization IC50 [34]: 0.123 µg/mL; neutralization IC50 [36]: 0.196 µg/mL
5145_B14 (PGT-127) (antibody)	> 50	0.57	0.017	> 50	3.4	7.7	> 50	0.113	0.41	> 50	> 50	0.429	0.009	> 50	> 50	> 50	> 50	> 50	> 50	0.1	neutralization IC50 [15]: > 50 µg/mL; neutralization IC50 [17]: > 50 µg/mL; neutralization IC50 [19]: 1.08 µg/mL; neutralization IC50 [21]: 0.319 µg/mL; neutralization IC50 [23]: > 50 µg/mL; neutralization IC50 [25]: > 50 µg/mL; neutralization IC50 [26]: 0.057 µg/mL; neutralization IC50 [27]: > 50 µg/mL; neutralization IC50 [28]: > 50 µg/mL; neutralization IC50 [31]: > 50 µg/mL; neutralization IC50 [32]: 0.532 µg/mL; neutralization IC50 [33]: > 50 µg/mL; neutralization IC50 [34]: 1.07 µg/mL; neutralization IC50 [36]: > 50 µg/mL
5329_C19 (PGT-136) (antibody)	> 50	–	–	–	–	> 50	–	8.11	–	45.2	> 50	44.3	> 50	> 50	> 50	> 50	> 50	> 50	> 50	0.2	IC50 (neutralizing activity, pseudovirus) [4]: > 10 µg/mL; IC50 (neutralizing activity, pseudovirus) [6]: > 10 µg/mL; IC50 (neutralizing activity, pseudovirus) [39]: > 10 µg/mL; IC50 (neutralizing activity, pseudovirus) [10]: 0.0915 µg/mL; IC50 (neutralizing activity, pseudovirus) [40]: > 10 µg/mL; IC50 (neutralizing activity, pseudovirus) [41]: > 10 µg/mL; IC50 (neutralizing activity, pseudovirus) [14]: > 10 µg/mL; neutralization IC50 (pseudovirus) [42]: 0.738 µg/mL; IC50 (neutralizing activity, pseudovirus) [20]: > 10 µg/mL; IC50 (neutralizing activity, pseudovirus) [43]: > 10 µg/mL; IC50 (neutralizing activity, pseudovirus) [44]: > 10 µg/mL; IC50 (neutralizing activity, pseudovirus) [45]: 0.0135 µg/mL; IC50 (neutralizing activity, pseudovirus) [46]: 0.0065 µg/mL; IC50 (neutralizing activity, pseudovirus) [47]: > 10 µg/mL; IC50 (neutralizing activity, pseudovirus) [48]: > 10 µg/mL
5343_B08 (PGT-135) (antibody)	> 50	–	–	–	–	> 50	–	0.393	–	0.062	0.137	0.145	> 50	> 50	> 50	> 50	> 50	> 50	> 50	0.1	IC50 (neutralizing activity, pseudovirus) [4]: 6.79 µg/mL; IC50 (neutralizing activity, pseudovirus) [6]: > 10 µg/mL; IC50 (neutralizing activity, pseudovirus) [39]: > 10 µg/mL; IC50 (neutralizing activity, pseudovirus) [10]: 0.0139 µg/mL; IC50 (neutralizing activity, pseudovirus) [40]: > 10 µg/mL; IC50 (neutralizing activity, pseudovirus) [41]: 0.0433 µg/mL; IC50 (neutralizing activity, pseudovirus) [14]: > 10 µg/mL; neutralization IC50 (pseudovirus) [42]: 0.157 µg/mL; IC50 (neutralizing activity, pseudovirus) [20]: > 10 µg/mL; IC50 (neutralizing activity, pseudovirus) [43]: 0.113 µg/mL; IC50 (neutralizing activity, pseudovirus) [44]: > 10 µg/mL; IC50 (neutralizing activity, pseudovirus) [45]: 0.0183 µg/mL; IC50 (neutralizing activity, pseudovirus) [46]: 0.0123 µg/mL; IC50 (neutralizing activity, pseudovirus) [47]: > 10 µg/mL; IC50 (neutralizing activity, pseudovirus) [48]: 2.16 µg/mL
